This is an account of results in article PMC3173395, “Characterization of the latent membrane protein 1 signaling complex of Epstein-Barr virus in the membrane of mammalian cells with bimolecular fluorescence complementation” (Virology Journal, 2011).

In the assay the target is T1, A5-Y384G-NYFP (full-length LMP1 with mutations in CTAR1 and CTAR2, NYFP at the C-terminus) (Epstein-Barr virus, B95-8 strain, UniProt P03230 1-386, amino acids 204-208 PQQAT mutated to AAAAA | Y384G).
T1 sequence: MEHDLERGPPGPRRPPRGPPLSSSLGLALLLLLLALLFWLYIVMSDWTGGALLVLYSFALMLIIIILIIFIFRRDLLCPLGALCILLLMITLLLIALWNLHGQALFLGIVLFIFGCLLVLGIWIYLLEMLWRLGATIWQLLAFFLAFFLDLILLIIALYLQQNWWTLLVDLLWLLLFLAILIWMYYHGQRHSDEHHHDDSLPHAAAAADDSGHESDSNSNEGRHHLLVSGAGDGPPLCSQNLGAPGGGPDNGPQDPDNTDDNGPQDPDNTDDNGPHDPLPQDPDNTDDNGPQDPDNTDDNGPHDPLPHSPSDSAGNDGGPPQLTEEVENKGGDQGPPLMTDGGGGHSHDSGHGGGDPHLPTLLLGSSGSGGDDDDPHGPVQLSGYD
The assay is described as follows: cell-based or functional assay.

B1: CYFP-TRAF2 (CYFP fused to the amino-terminus of TRAF2, amino acids 98-501) (domain or fragment)
chain: REVESLPAVCPSDGCTWKGTLKEYESCHEGRCPLMLTECPACKGLVRLGEKERHLEHECPERSLSCRHCRAPCCGADVKAHHEVCPKFPLTCDGCGKKKIPREKFQDHVKTCGKCRVPCRFHAIGCLETVEGEKQQEHEVQWLREHLAMLLSSVLEAKPLLGDQSHAGSELLQRCESLEKKTATFENIVCVLNREVERVAMTAEACSRQHRLDQDKIEALSSKVQQLERSIGLKDLAMADLEQKVLEMEASTYDGVFIWKISDFARKRQEAVAGRIPAIFSPAFYTSRYGYKMCLRIYLNGDGTGRGTHLSLFFVVMKGPNDALLRWPFNQKVTLMLLDQNNREHVIDAFRPDVTSSSFQRPVNDMNIASGCPLFCPVSKMEAKNSYVRDDAIFIKAIVDLTGL
Regarding B1, the “NF-kB luciferase reporter activity in HEK-293T cells transfected with A5-Y384G-NYFP + A5-Y384G-CYFP (A5-Y384G BiFC), fold above vector; about 50% of LMP1 and LMP1-BiFC” value was roughly 22 fold.
